Data as given in article PMC12069552, “Root stem cell homeostasis in Arabidopsis involves cell-type specific transcription factor complexes” (EMBO Reports, 2025).

Assays:
[1] = molecular target: WOX5-mV(N) PLT3-mV(C) heterodimer (BiFC donor) (Arabidopsis thaliana) (UniProt Q8H1D2); assay: split reporter (BiFC, NanoBiT) + FRET or BRET; BiFC-FRET-FLIM in nuclei of N. benthamiana epidermal leaf cells; mVenus donor split into mV(N) and mV(C) on two proteins, third protein with mCherry as acceptor; 'binding' [%]; binding cutoff 10%
[2] = molecular target: BRAVO-mVenus (BRASSINOSTEROIDS AT VASCULAR AND ORGANIZING CENTRE) (Arabidopsis thaliana) (UniProt Q6R053); assay: FRET or BRET; FRET-FLIM in nuclei of transiently expressing N. benthamiana epidermal leaf cells; mVenus fusion as donor, mCherry fusion as acceptor; 'binding' [%] is the amplitude of the FRET component (number of donor molecules undergoing FRET); binding cutoff 10%; a binding not significantly different from the negative control (mCherry-NLS) is regarded as no interaction
[3] = molecular target: T1, WOX5-mV(N) PLT3-mV(C) heterodimer (BiFC donor) (Arabidopsis thaliana, UniProt Q8H1D2 1-182; Q52QU2 1-581); assay: split reporter (BiFC, NanoBiT) + FRET or BRET; BiFC-FRET-FLIM in nuclei of N. benthamiana epidermal leaf cells; mVenus donor split into mV(N) and mV(C) on two proteins, third protein with mCherry as acceptor; 'binding' [%]; binding cutoff 10%; conditions: partners not purified
T1 construct: WUSCHEL-RELATED HOMEOBOX 5 (WOX5) of Arabidopsis thaliana; the CDS, described in Burkart et al, 2022; PLETHORA 3 (PLT3) of Arabidopsis thaliana; The two halves of mVenus are reconstituted in the heterodimer, which serves as FRET donor; also called heterodimer of WOX5 and PLT3; source: N. benthamiana abaxial epidermal leaf cells, transiently co-expressed, in cells
T1 sequence (looked up) 1: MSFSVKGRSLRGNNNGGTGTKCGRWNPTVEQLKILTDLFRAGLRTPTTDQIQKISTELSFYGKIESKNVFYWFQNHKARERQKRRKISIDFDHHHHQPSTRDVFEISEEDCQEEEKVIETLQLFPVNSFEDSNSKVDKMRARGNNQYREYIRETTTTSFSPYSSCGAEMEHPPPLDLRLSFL
T1 sequence (looked up) 2: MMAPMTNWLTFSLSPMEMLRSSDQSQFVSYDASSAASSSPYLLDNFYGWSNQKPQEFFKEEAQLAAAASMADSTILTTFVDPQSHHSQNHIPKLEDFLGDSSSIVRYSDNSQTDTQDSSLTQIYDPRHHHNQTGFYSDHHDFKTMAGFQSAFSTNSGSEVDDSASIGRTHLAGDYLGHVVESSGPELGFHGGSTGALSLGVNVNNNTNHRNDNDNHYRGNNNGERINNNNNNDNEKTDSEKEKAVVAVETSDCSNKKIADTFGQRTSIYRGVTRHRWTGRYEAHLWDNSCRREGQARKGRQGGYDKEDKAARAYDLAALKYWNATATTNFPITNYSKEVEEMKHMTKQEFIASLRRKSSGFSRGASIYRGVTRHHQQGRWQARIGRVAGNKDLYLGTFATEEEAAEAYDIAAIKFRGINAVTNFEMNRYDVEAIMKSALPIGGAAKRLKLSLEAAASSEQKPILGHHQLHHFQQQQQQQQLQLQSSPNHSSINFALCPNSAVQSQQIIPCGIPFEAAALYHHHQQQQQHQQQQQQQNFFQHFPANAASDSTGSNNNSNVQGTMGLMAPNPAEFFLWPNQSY

[4] = molecular target: T2, BRAVO-mV(N) PLT3-mV(C) heterodimer (BiFC donor) (Arabidopsis thaliana, UniProt Q6R053 1-323; Q52QU2 1-581); assay: as above; conditions: partners not purified
T2 construct: BRAVO, R2R3-MYB transcription factor of Arabidopsis thaliana; the CDS amplified from cDNA; PLETHORA 3 (PLT3) of Arabidopsis thaliana; the CDS, described in Burkart et al, 2022; The two halves of mVenus are reconstituted in the heterodimer, which serves as FRET donor; source: N. benthamiana abaxial epidermal leaf cells, transiently co-expressed, in cells
T2 sequence (looked up) 1: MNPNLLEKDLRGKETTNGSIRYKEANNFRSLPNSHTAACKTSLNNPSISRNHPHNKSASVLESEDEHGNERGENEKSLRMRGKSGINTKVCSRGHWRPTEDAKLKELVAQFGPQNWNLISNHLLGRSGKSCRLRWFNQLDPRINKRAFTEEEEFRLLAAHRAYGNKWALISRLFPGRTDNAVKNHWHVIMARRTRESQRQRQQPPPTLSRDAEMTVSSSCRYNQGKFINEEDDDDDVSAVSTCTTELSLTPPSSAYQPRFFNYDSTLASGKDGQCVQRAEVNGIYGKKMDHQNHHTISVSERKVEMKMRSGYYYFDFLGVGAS
T2 sequence (looked up) 2: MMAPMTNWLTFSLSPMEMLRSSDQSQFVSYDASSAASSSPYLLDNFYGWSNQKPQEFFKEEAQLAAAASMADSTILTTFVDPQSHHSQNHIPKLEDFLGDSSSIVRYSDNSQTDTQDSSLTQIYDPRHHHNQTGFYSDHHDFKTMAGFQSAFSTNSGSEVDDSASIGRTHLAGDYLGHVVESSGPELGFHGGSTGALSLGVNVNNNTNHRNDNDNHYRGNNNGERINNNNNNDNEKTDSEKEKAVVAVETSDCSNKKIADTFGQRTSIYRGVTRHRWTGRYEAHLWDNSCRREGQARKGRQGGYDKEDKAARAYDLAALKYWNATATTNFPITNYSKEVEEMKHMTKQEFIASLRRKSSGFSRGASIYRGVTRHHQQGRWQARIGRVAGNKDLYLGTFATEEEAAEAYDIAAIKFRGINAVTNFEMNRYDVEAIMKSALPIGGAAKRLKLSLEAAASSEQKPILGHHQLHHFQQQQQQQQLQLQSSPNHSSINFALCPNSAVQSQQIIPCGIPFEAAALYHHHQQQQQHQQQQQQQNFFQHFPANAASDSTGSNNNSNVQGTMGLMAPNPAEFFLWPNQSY

[5] = molecular target: T3, BRAVO-mVenus (BRASSINOSTEROIDS AT VASCULAR AND ORGANIZING CENTRE) (Arabidopsis thaliana, UniProt Q6R053 1-323); assay: FRET or BRET; FRET-FLIM in nuclei of transiently expressing N. benthamiana epidermal leaf cells; mVenus fusion as donor, mCherry fusion as acceptor; 'binding' [%] is the amplitude of the FRET component (number of donor molecules undergoing FRET); binding cutoff 10%; a binding not significantly different from the negative control (mCherry-NLS) is regarded as no interaction; conditions: partners not purified
T3 construct: BRAVO, R2R3-MYB transcription factor of Arabidopsis thaliana; the CDS amplified from cDNA; FRET donor; source: N. benthamiana abaxial epidermal leaf cells, transiently expressed (β-estradiol inducible promoter), in cells
T3 sequence (looked up): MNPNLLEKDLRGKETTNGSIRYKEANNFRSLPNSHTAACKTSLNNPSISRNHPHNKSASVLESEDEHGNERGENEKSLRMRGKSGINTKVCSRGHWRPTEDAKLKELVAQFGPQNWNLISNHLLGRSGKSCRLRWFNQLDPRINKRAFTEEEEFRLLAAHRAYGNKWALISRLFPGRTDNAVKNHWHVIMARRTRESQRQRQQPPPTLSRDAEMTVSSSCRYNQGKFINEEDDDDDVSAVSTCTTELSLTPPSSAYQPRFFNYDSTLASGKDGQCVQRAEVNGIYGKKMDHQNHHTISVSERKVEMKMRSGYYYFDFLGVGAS

BES1D-mCherry (BRI1-EMS-SUPPRESSOR 1, BES1D form), sequence (Q9LN63 whole entry): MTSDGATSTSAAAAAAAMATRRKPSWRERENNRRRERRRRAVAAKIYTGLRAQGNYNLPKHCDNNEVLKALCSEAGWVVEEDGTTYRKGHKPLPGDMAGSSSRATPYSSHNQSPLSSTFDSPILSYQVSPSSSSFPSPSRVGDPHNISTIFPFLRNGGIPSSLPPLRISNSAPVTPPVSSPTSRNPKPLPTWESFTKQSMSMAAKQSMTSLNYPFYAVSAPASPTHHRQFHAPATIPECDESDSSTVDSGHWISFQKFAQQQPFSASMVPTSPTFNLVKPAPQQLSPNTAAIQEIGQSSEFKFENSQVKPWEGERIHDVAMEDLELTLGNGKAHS

Molecule	binding (FRET-FLIM, share of donor molecules undergoing FRET) [1] [%]	binding (FRET-FLIM, share of donor molecules undergoing FRET) [2] [%]	binding (FRET-FLIM, share of donor molecules undergoing FRET) [3] [%]	binding (FRET-FLIM, share of donor molecules undergoing FRET) [4] [%]	binding (FRET-FLIM, share of donor molecules undergoing FRET) [5] [%]
BES1D-mCherry (BRI1-EMS-SUPPRESSOR 1, BES1D form) (from UniProt Q9LN63 1-335) (natural protein)	18.7	27.4			
BRAVO-mCherry (natural protein, Arabidopsis thaliana, UniProt Q6R053 1-323, looked up, BRAVO, R2R3-MYB transcription factor of Arabidopsis thaliana; the CDS amplified from cDNA; FRET acceptor; source: N. benthamiana abaxial epidermal leaf cells, transiently expressed (β-estradiol inducible), in cells) MNPNLLEKDLRGKETTNGSIRYKEANNFRSLPNSHTAACKTSLNNPSISRNHPHNKSASVLESEDEHGNERGENEKSLRMRGKSGINTKVCSRGHWRPTEDAKLKELVAQFGPQNWNLISNHLLGRSGKSCRLRWFNQLDPRINKRAFTEEEEFRLLAAHRAYGNKWALISRLFPGRTDNAVKNHWHVIMARRTRESQRQRQQPPPTLSRDAEMTVSSSCRYNQGKFINEEDDDDDVSAVSTCTTELSLTPPSSAYQPRFFNYDSTLASGKDGQCVQRAEVNGIYGKKMDHQNHHTISVSERKVEMKMRSGYYYFDFLGVGAS			36.3 ± 10.7		

Results, then the molecule that gave them:

binding (FRET-FLIM, share of donor molecules undergoing FRET) [1] [%]	binding (FRET-FLIM, share of donor molecules undergoing FRET) [2] [%]	binding (FRET-FLIM, share of donor molecules undergoing FRET) [3] [%]	binding (FRET-FLIM, share of donor molecules undergoing FRET) [4] [%]	binding (FRET-FLIM, share of donor molecules undergoing FRET) [5] [%]	Molecule
		23.3 ± 8.3	21.1 ± 8.3	26.7 ± 9.8	TPL-mCherry (TOPLESS) (natural protein, Arabidopsis thaliana, UniProt Q94AI7 1-1131, looked up, TOPLESS (TPL) of Arabidopsis thaliana; the CDS amplified from cDNA; FRET acceptor; source: N. benthamiana abaxial epidermal leaf cells, transiently expressed (β-estradiol inducible), in cells) MSSLSRELVFLILQFLDEEKFKETVHKLEQESGFFFNMKYFEDEVHNGNWDEVEKYLSGFTKVDDNRYSMKIFFEIRKQKYLEALDKHDRPKAVDILVKDLKVFSTFNEELFKEITQLLTLENFRENEQLSKYGDTKSARAIMLVELKKLIEANPLFRDKLQFPTLRNSRLRTLINQSLNWQHQLCKNPRPNPDIKTLFVDHSCGPPNGARAPSPVNNPLLGGIPKAGGFPPLGAHGPFQPTASPVPTPLAGWMSSPSSVPHPAVSAGAIALGGPSIPAALKHPRTPPTNASLDYPSADSEHVSKRTRPMGISDEVNLGVNMLPMSFSGQAHGHSPAFKAPDDLPKTVARTLSQGSSPMSMDFHPIKQTLLLVGTNVGDIGLWEVGSRERLVQKTFKVWDLSKCSMPLQAALVKEPVVSVNRVIWSPDGSLFGVAYSRHIVQLYSYHGGEDMRQHLEIDAHVGGVNDISFSTPNKQLCVITCGDDKTIKVWDAATGVKRHTFEGHEAPVYSVCPHYKENIQFIFSTALDGKIKAWLYDNMGSRVDYDAPGRWCTTMAYSADGTRLFSCGTSKDGESFIVEWNESEGAVKRTYQGFHKRSLGVVQFDTTKNRYLAAGDDFSIKFWDMDAVQLLTAIDGDGGLQASPRIRFNKEGSLLAVSGNENVIKIMANSDGLRLLHTFENISSESSKPAINSIAAAAAAAATSAGHADRSANVVSIQGMNGDSRNMVDVKPVITEESNDKSKIWKLTEVSEPSQCRSLRLPENLRVAKISRLIFTNSGNAILALASNAIHLLWKWQRNERNATGKATASLPPQQWQPASGILMTNDVAETNPEEAVPCFALSKNDSYVMSASGGKISLFNMMTFKTMATFMPPPPAATFLAFHPQDNNIIAIGMDDSTIQIYNVRVDEVKSKLKGHSKRITGLAFSNVLNVLVSSGADAQLCVWNTDGWEKQRSKVLPLPQGRPNSAPSDTRVQFHQDQAHFLVVHETQLAIYETTKLECMKQWAVRESLAPITHATFSCDSQLVYASFMDATVCVFSSANLRLRCRVNPSAYLPASLSNSNVHPLVIAAHPQEPNMFAVGLSDGGVHIFEPLESEGKWGVAPPAENGSASGAPTAPSVGASASDQPQR
			29.8 ± 10.6	22.4 ± 14.1	WOX5-mCherry (WUSCHEL-RELATED HOMEOBOX 5) (natural protein, Arabidopsis thaliana, UniProt Q8H1D2 1-182, looked up, WUSCHEL-RELATED HOMEOBOX 5 (WOX5), homeodomain transcription factor of Arabidopsis thaliana; the CDS, described in Burkart et al, 2022; FRET acceptor; construct XVE:WOX5-mCherry of Burkart et al, 2022; source: N. benthamiana abaxial epidermal leaf cells, transiently expressed (β-estradiol inducible), in cells) MSFSVKGRSLRGNNNGGTGTKCGRWNPTVEQLKILTDLFRAGLRTPTTDQIQKISTELSFYGKIESKNVFYWFQNHKARERQKRRKISIDFDHHHHQPSTRDVFEISEEDCQEEEKVIETLQLFPVNSFEDSNSKVDKMRARGNNQYREYIRETTTTSFSPYSSCGAEMEHPPPLDLRLSFL
